Patent US20030157688A1 (Scripps Research, published 2003)

T1: wild-type adenovirus type 5 (Ad5) fiber protein (human adenovirus type 5, UniProt P11818 1-581)
T1 construct: also called type 5 fiber protein; recombinant Ad5 fiber
T1 sequence: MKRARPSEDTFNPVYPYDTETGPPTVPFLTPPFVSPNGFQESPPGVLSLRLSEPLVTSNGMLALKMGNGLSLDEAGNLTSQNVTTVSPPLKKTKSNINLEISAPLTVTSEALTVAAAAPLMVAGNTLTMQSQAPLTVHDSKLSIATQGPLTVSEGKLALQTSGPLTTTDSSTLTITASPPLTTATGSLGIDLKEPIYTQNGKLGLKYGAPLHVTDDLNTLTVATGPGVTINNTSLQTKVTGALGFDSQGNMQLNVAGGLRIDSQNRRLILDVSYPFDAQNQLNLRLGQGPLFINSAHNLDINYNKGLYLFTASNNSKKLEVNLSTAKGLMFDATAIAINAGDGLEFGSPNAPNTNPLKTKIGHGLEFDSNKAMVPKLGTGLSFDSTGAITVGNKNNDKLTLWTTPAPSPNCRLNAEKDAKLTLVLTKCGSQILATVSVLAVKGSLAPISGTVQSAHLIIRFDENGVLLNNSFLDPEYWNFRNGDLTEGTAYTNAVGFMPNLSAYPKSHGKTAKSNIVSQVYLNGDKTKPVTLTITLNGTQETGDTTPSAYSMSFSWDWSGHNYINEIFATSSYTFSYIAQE

B1: chimeric 5T3H fiber protein (Ad5 fiber tail and shaft with the Ad3 fiber knob) (other)
chain: MKRARPSEDTFNPVYPYDTETGPPTVPFLTPPFVSPNGFQESPPGVLSLRLSEPLVTSNGMLALKMGNGLSLDEAGNLTSQNVTTVSPPLKKTKSNINLEISAPLTVTSEALTVAAAAPLMVAGNTLTMQSQAPLTVHDSKLSIATQGPLTVSEGKLALQTSGPLTTTDSSTLTITASPPLTTATGSLGIDLKEPIYTQNGKLGLKYGAPLHVTDDLNTLTVATGPGVTINNTSLQTKVTGALGFDSQGNMQLNVAGGLRIDSQNRRLILDVSYPFDAQNQLNLRLGQGPLFINSAHNLDINYNKGLYLFTASNNSKKLEVNLSTAKGLMFDATAIAINAGDGLEFGSPNAPNTNPLKTKIGHGLEFDSNKAMVPKLGTGLSFDSTGAITVGNKNNDKLTLWTGPKPEANCIIEYGKQNPDSKLTLILVKNGGIVNGYVTLMGASDYVNTLFKNKNVSINVELYFDATGHILPDSSSLKTDLELKYKQTADFSARGFMPSTTAYPFVLPNAGTHNENYIFGQCYYKASDGALFPLEVTVMLNKRLPDSRTSYVMTFLWSLNAGLAPETTQATLITSPFTFSYIREDD

What was measured:
[1] = molecular target: B1; experiment: fiber-deleted vector grown in 644 cells
[2] = molecular target: T1, wild-type adenovirus type 5 (Ad5) fiber …; experiment: Western blot of particles purified from 633 cells
Ad3 receptor = experiment: cell-based or functional assay

Binder | binding result [1] | binding result [2] | infection of EBV-transformed lymphoblastoid cell lines (X-gal stained cells) (Ad3 receptor)
Ad5 penton base protein (in the capsid of Ad5.βgal.ΔF / Ad5 vector particles) (other, The assays used whole virions; also called fiberless adenovector (penton base at the vertices)) MRRAAMYEEGPPPSYESVVSAAPVAAALGSPFDAPLDPPFVPPRYLRPTGGRNSIRYSELAPLFDTTRVYLVDNKSTDVASLNYQNDHSNFLTTVIQNNDYSPGEASTQTINLDDRSHWGGDLKTILHTNMPNVNEFMFTNKFKARVMVSRLPTKDNQVELKYEWVEFTLPEGNYSETMTIDLMNNAIVEHYLKVGRQNGVLESDIGVKFDTRNFRLGFDPVTGLVMPGVYTNEAFHPDIILLPGCGVDFTHSRLSNLLGIRKRQPFQEGFRITYDDLEGGNIPALLDVDAYQASLKDDTEQGGGGAGGSNSSGSGAEENSNAAAAAMQPVEDMNDHAIRGDTFATRAEEKRAEAEAAAEAAAPAAQPEVEKPQKKPVIKPLTEDSKKRSYNLISNDSTFTQYRSWYLAYNYGDPQTGIRSWTLLCTPDVTCGSEQVYWSLPDMMQDPVTFRSTRQISNFPVVGAELLPVHSKSFYNDQAVYSQLIRQFTSLTHVFNRFPENQILARPPAPTITTVSENVPALTDHGTLPLRNSIGGVQRVTITDARRRTCPYVYKALGIVSPRVLSSRTF | binds | binds | 
B1 |  |  | ≥ 10 fold
